Assay results from paper PMC12167484, “Specific phosphoinositide interaction of Jps1 is a key feature during unconventional secretion in Ustilago maydis” (The Journal of Biological Chemistry, 2025).

Legend:
Cts1 = target: T1, Cts1 (Mycosarcoma maydis, UniProt A0A0D1DVM8); assay: fluorogenic chitinase assay, intact cells or native extract; assay type: cell-based; conditions: KHM buffer (110 mM potassium acetate, 20 mM Hepes, 2 mM MgCl2), 25 °C
T1 construct: gene UMAG_10419; native Cts1, extracellular on intact U. maydis AB33 cells or in native cell extracts
T1 sequence (A0A0D1DVM8 1-502): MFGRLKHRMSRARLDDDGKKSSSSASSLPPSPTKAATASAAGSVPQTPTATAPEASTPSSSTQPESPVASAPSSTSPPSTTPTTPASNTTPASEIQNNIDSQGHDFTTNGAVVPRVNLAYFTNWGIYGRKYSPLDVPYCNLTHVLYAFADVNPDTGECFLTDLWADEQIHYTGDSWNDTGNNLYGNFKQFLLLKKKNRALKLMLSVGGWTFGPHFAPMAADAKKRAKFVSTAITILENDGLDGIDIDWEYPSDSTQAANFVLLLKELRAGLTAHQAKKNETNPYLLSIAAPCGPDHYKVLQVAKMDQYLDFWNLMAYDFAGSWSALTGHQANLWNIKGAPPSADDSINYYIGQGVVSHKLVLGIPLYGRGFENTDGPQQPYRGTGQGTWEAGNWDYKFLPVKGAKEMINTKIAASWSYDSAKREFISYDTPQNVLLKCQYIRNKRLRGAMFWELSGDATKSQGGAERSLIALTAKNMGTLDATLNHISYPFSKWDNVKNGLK

[1] = target: Hebeloma cylindrosporum Jps1, full-length recombinant (Hebeloma cylindrosporum); assay: SEC-MALS; after SEC purification the sample was applied to a Superdex 200 10/30 column coupled to a miniDAWN TREOS light scattering detector and a refractive index detector; monomer to dimer
HcJps1 = target: T2, HcJps1 (Hebeloma cylindrosporum, UniProt A0A0C3CFZ0); assay: surface plasmon resonance, immobilised liposomes, steady-state affinity; assay type: binding; conditions: DOPC/PI(4,5)P2 liposomes (1 mM lipid) on LP chip, DOPC reference; 20 mM Hepes pH 7.5, 20 mM KCl, 200 mM NaCl; 0.2-6.4 μM protein
T2 construct: gene M413DRAFT_206302; full length, 287 residues; 6xHis-GB1 fusion made in E. coli (GB1 tag cleaved with TEV before SEC; codon-optimised gene for U. maydis)
T2 sequence (A0A0C3CFZ0 1-287): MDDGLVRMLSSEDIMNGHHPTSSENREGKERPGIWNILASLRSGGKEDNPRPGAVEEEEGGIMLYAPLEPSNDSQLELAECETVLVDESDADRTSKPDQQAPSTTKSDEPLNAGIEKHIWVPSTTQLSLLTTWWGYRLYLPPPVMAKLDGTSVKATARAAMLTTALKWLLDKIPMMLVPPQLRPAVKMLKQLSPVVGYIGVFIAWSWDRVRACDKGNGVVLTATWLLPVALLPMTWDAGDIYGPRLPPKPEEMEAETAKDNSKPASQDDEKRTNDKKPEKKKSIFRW

UmJps1 (Jps1^1-609) = target: T3, UmJps1 (Jps1^1-609) (Mycosarcoma maydis, UniProt A0A0D1C3B2); assay: liposome co-sedimentation, SDS-PAGE; assay type: binding; conditions: DOPC:cholesterol:PIP 80:15:5 (with cholesterol); protein:lipid 1:5000; pH 7.5, room temperature
T3 construct: gene UMAG_03776; full length, 609 residues; 6xHis-Jps1 made in E. coli Rosetta(DE3) pLyS (pET22b, C-terminal His-tag in strip assay); homodimer 134 kDa
T3 sequence (A0A0D1C3B2 1-609): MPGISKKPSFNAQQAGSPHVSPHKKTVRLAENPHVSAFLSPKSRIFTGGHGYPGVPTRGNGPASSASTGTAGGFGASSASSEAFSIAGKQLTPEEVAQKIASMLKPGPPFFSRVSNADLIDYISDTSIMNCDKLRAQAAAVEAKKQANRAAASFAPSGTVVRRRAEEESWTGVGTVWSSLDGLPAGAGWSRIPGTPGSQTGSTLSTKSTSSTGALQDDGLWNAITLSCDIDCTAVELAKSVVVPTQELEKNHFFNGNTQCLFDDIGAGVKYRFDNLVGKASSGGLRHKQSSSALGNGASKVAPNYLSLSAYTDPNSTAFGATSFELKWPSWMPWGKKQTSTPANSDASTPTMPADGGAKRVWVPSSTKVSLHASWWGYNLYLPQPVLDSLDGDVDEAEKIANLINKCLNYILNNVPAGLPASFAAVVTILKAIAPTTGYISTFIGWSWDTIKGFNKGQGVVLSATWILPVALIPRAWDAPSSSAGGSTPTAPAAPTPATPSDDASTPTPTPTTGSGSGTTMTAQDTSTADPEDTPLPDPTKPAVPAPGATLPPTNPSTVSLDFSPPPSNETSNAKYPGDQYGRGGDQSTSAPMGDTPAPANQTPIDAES

[2] = target: Sporisorium reilianum Jps1, full-length recombinant (Sporisorium reilianum); assay: SEC-MALS; after SEC purification the sample was applied to a Superdex 200 10/30 column coupled to a miniDAWN TREOS light scattering detector and a refractive index detector; monomer to dimer
[3] = target: Sporisorium reilianum Jps1, full-length recombinant (Sporisorium reilianum); assay: mass photometry; TwoMP mass photometer, protein at 10 nM in Hepes buffer, room temperature; monomer to dimer
[4] = target: Ustilago maydis Jps1, full-length recombinant (Jps1^1-609) (Ustilago maydis); assay: SEC-MALS; after SEC purification the sample was applied to a Superdex 200 10/30 column coupled to a miniDAWN TREOS light scattering detector and a refractive index detector; monomer to dimer
[5] = target: Ustilago maydis Jps1, full-length recombinant (Jps1^1-609) (Ustilago maydis); assay: mass photometry; TwoMP mass photometer, protein at 10 nM in Hepes buffer, room temperature; monomer to dimer
[6] = target: Ustilago maydis Jps1^1-484 (lacking the unstructured C-terminus) (Ustilago maydis); assay: SEC-MALS; after SEC purification the sample was applied to a Superdex 200 10/30 column coupled to a miniDAWN TREOS light scattering detector and a refractive index detector; monomer to dimer
[7] = target: Ustilago maydis Jps1^1-484 (lacking the unstructured C-terminus) (Ustilago maydis); assay: SAXS; P12 beamline, batch mode, 10 °C, 0.6 mg/ml purified Jps1^1-484; rigid body modeling of the dimer with CORAL

CC(=O)N[C@H]1[C@H](Oc2ccc3c(C)cc(=O)oc3c2)O[C@H](CO)[C@@H](O[C@@H]2O[C@H](CO)[C@@H](O[C@@H]3O[C@H](CO)[C@@H](O)[C@H](O)[C@H]3NC(C)=O)[C@H](O)[C@H]2NC(C)=O)[C@@H]1O [MUC, 4-methylumbelliferyl-β-D-N, N′, N’’-triacetylchitotrioside]
fluorogenic chitinase assay, intact cells or native extract (Cts1): MUC, a fluorogenic substrate 4-methylumbelliferyl-β-D-N, N′, N’’-triacetylchitotrioside

Hebeloma cylindrosporum Jps1, full-length recombinant (natural protein)
stoichiometry N [1]: 2

PI(4,5)P2
Kd (HcJps1): 0.9 µM | % of input protein bound (UmJps1 (Jps1^1-609)): ~ 50%

Sporisorium reilianum Jps1, full-length recombinant (natural protein)
stoichiometry N [2]: 2 | stoichiometry N [3]: 2

Ustilago maydis Jps1, full-length recombinant (Jps1^1-609) (natural protein)
stoichiometry N [4]: 2 | percent of particles in the dimer fraction [5]: 69% | stoichiometry N [5]: 2

Ustilago maydis Jps1^1-484 (lacking the unstructured C-terminus) (domain or fragment)
stoichiometry N [6]: 2 | stoichiometry N [7]: 2
